Assays:
Format in all cases: cell-based, human
[1] = tested on: ceramide production by N-SMase; experiment: Ceramide level, modified diacylglycerol kinase assay; conditions: for Production of ceramide in response to cytokine stimulation: ribozyme-transfected (N-SMase-deficient) cells compared to sham transfected cells, TNF-α 20 ng/ml or Fas-L 1 ng/ml, 24 hours
N-SMase [2] = experiment: Neutral sphingomyelinase activity in cell extracts, [14C]sphingomyelin substrate; conditions: for Neutral SMase activity: MG-63 WT 2.7, L-3 LacZ/sham 2.1
Procedure: Confluent culture of cells were harvested, washed, and pellets lysed in buffer containing 0.1% Triton™ X-100, 25 mM Tris (pH 7.4) buffer, 5 mM EDTA, 1 mM phenylmethylsulfonylfluoride and 2 μg each of chymostatin, leupeptin, antipain, and pepstatin A. The activity levels of acid and neutral sphingomyelinase were measured in cell extracts (100 μg protein) in duplicate as described previously employing […] as the substrate.
Activities of A-SMase and N-SMase were also measured according to methods described in Chatterjee, S. and Ghosh, N. (1996) Glycobiology 6:303–311, incorporated herein by reference, with minor modifications. In brief, 5×10^6 MG63 cells were scraped from the culture plates, washed with PBS, and disrupted by repeated passage through a 25-gauge needle. Nuclei and cell debris were pelleted at 800×g for 5 min. Supernatant fluid was collected, and the protein concentration was measured using the Bio-Rad (Hercules, Calif.) protein detection kit. To measure SMase activity, 50 μg of protein was incubated for 90 min (the reaction was linear for up to 120 min) at 37° C. in buffer (200 μl final volume) containing 250 mM sodium acetate and 1 mM EDTA, pH 5.0, for A-SMase or 250 mM Tris-Cl, pH 7.4, with or without 6 mM MgCl2 for N-SMase, and 0.75 μl of [methyl-^14C]sphingomyelin (SM) (0.2 mCi/ml; 56.6 mCi/mmol). Radioactive phosphocholine produced from [^14C]SM was extracted with 800 μl of chloroform-methanol (2:1, vol/vol) and 100 μl of H2O. [^14C]phosphocholine in the aqueous phase was measured by scintillation counting.

N-SMase mRNA = N-SMase mRNA by Northern analysis and RT-PCR in transfected MG63 clones
Procedure: RNA was originally extracted from a single confluent (90%) T-75 flask using Trizol. […] Next, poly-A^+ RNA was extracted from 3 confluent T-75 flasks, loading 3.5 μg/lane. Northern gels were standard, using 1.2% agarose, 1×MOPS, and 6.5% formaldehyde. RNA was transferred to nylon membranes with a standard wick system. The cDNA probe was derived from the cDNA construct, pHH11. An EcoR-1/SpeI fragment, containing a three hundred base pair probe was prepared. This was radiolabeled with [^32P]-dCTP and the random primer labeling system.
Clone CC had no detectable N-SMase mRNA by Northern analysis, so RT-PCR was performed to quantitate the reduction. Compared to a control-transfected clone (WT), there was a 50% reduction in mRNA in clone CC (ribozyme). This was confirmed by western blot analysis of the transfected and control clones for N-SMase.

MG-63 cells = experiment: Cell viability by trypan blue staining; conditions: ribozyme transfected cells, 24 hours, trypan blue, FIG. 8
Procedure: FIG. 8 depicts the effect of TNF-α on viability of wild type, ribozyme transfected and wild type/mock transfected cells. Cells ([…]) were seeded in 96 well sterile plastic trays. Upon confluence medium was replaced with serum free minimum essential medium and TNF-α (20 ng/ml). After incubation for 24 h at 37° C., viability of cells were determined by Trypan blue staining. The results represent ±S.D. of three experiments.
The population of viable cells was determined using trypan blue staining. Cells (10^4) were seeded in 96 well plates. Twenty-four hours later, the media was replaced with serum-free MEM, and TNF-α in various concentrations was added. After incubation for 24 hours at 37° C., the cells were trypsinized, and viable cells were counted after staining with trypan blue. Values were compared to the original cell count (10^4) and expressed as a percentage.

[3] = tested on: caspase-3 and cytochrome-C release; experiment: Caspase-3 and cytochrome-C release by western analysis and densitometry; conditions: N-SMase-deficient cells compared to control (sham-transfected) cells
Procedure: In order to determine a dose-response relationship between the concentration of TNF-α or FasL and apoptosis, western analysis was used to quantitate release of both caspase-3 (FIG. 9) and cytochrome-C (FIG. 10).
Immunoblots for the measurement of cytochrome-C and caspase-3 were carried out after incubation of cells with TNF-α (10 ng/ml) or FasL (1 ng/ml) for 48 hours. Cells were extracted with a buffer (20 mM Hepes pH 7.5, 10 mM KCl, 1.5 mM MgCl2, 5 mM EDTA, 5 mM DTT, 2 mM phenylmethylsulfonylfluoride, 1% NonidetP40, 0.5% sodium deoxycholate, 0.1% SDS, 2 μg/ml leupeptin, 2 μg/ml aprotinin, 0.5 μg/ml benzamindine, and 250 mM sucrose) on ice for 30 minutes. After centrifugation for 10 minutes at 10,000×g, the supernatant was used for western analysis with an antibody for cytochrome-C (Pharmingen, San Diego, Calif.). For assessment of caspase-3, samples were similarly processed in addition to passage through a 21-g needle prior to centrifugation. The western analysis was performed with a rabbit polyclonal IgG antibody to caspase-3 (Santa Cruz, Calif.) raises against an epitope corresponding to amino acids 1–277, representing the full-length precursor form of CPP-32 (caspase-3). For both caspase-3 and cytochrome-C, bands were quantified with densitometric analysis.

fibronectin = experiment: Immunocytochemical analysis of cells, fibronectin antibody (specificity control); conditions: lines harboring pU1/N-SMase vs pZeoSVLacZ vs untransfected cells
Procedure: (§1) Wild-type (WT) MG-63 cells and MG-63 cells transfected with LacZ constructs (L-3) and ribozyme expression constructs for the inhibition of N-SMase expression (CC) were analyzed by immunocytochemistry. The antibodies either recognized epitopes in fibronectin (control) or N-SMase. The analysis was performed in duplicates for the MG-63 cell line and the two mutant colonies.

N-SMase [4] = experiment: Immunocytochemical analysis of cells, N-SMase antibody; conditions: clone CC compared to untransfected (WT) and sham-transfected (LacZ) lines
Procedure: as §1

B1: N-SMase ribozyme: U1 snRNA-derived hammerhead antisense ribozyme targeting N-SMase mRNA, expressed from vector pNSMRz; stably transfected MG63 clones CC and C-B (nucleic acid, listed as Homo sapiens)
chain: AUACUUACCUGGCAGGGGAGAUACCAUGAUCACGAAGGUGGUUUUCCCAGGGCGAGGCUUAUCCAUUGGCCUCCGGAUGUGCUGACCCCUGCGAUUUCCCCAAAUGUGGGAAACUCGACUGCAGAAUAUGUCAUCAUAUUGCCUGAUGAGUCCGUGAGGACGAAACCUCUUCACAUGAAAAAGUGGGGCUGCGUUCGCGCUUCCCCG
Production of ceramide in response to cytokine stimulation ([1]; listed as antisense ribozyme): substantially no change | Production of ceramide in response to cytokine stimulation ([1]; listed as ribozyme): severely reduced | Basal level of ceramide production ([1]; ribozyme-transfected CC cells, 2.63 in MG-63 control cells): 4.59 pmole/mg protein | Neutral SMase activity (N-SMase [2]; MG-63 clone C-B (ribozyme-transfected mutant), average of two batches): 1.0 nmol/mg protein/hr | Neutral SMase activity (N-SMase [2]; MG-63 clone CC (ribozyme-transfected mutant), average of two batches of cell pellets): 0.67 nmol/mg protein/hr | Reduction in N-SMase activity (N-SMase [2]; ribozyme-transfected cells compared to sham-transfected and untransfected controls): three-fold reduction | N-SMase mRNA by Northern analysis (N-SMase mRNA; clone CC): no detectable | Reduction in N-SMase mRNA by RT-PCR (N-SMase mRNA; clone CC compared to a control-transfected clone (WT)): 50% | Decline in viable cells over a wide range of TNF-α concentrations (MG-63 cells): no significant decline | Dose-response of caspase-3 and cytochrome-C release to TNF-α and FasL [3]: marked blunting of the response | Immunohistochemical staining with monoclonal antibody to fibronectin (fibronectin): No differences were observed | Immunohistochemical staining for N-SMase (N-SMase [4]): near absence
